Experimental data from PMC8042443, “PKCα-mediated phosphorylation of the diacylglycerol kinase ζ MARCKS domain switches cell migration modes by regulating interactions with Rac1 and RhoA” (The Journal of Biological Chemistry, 2021).

Assays:
[1] = target: T1, GST fusion protein of inactive RhoA (RhoA^N19) (UniProt P61586 1-193, RhoA^N19); test: pull-down; GST fusion proteins immobilised on beads, incubated 1 to 2 h at 4 °C with lysates of MEFs expressing HA-tagged DGKζ constructs; washed at least four times with ice-cold lysis buffer; bound DGKζ detected by anti-HA immunoblot; in some panels cells were treated with vehicle, 100 nM PMA, or 1 μM Gö6976 before PMA; conditions: one partner purified
T1 construct: cDNA from the Missouri S&T cDNA Resource Center, subcloned into pGEX-4T-3; also called GST-RhoA^N19; GST-RhoN^19; source: recombinant GST fusion (pGEX-4T-3), purified as described previously

[2] = target: T2, GST fusion protein of constitutively active RhoA (RhoA^V14) (UniProt P61586 1-193, RhoA^V14); test: as above; conditions: one partner purified
T2 construct: RhoA, constitutively active V14 mutant; cDNA from the Missouri S&T cDNA Resource Center, subcloned into pGEX-4T-3; also called GST-RhoA^V14; source: recombinant GST fusion (pGEX-4T-3), purified as described previously
T2 sequence (P61586 other isoform, or with tags, fused parts or gaps RhoA^V14 | RhoA^V14): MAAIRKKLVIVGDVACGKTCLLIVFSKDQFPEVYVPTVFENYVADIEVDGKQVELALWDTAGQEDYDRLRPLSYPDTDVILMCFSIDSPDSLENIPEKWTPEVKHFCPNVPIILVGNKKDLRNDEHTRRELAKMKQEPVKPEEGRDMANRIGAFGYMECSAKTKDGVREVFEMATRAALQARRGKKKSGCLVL

T1 sequence (P61586 other isoform, or with tags, fused parts or gaps RhoA^N19 | RhoA^N19): as the sequence (P61586 other isoform, or with tags, fused parts or gaps RhoA^V14 | RhoA^V14) above, with V14G, T19N counted along it

B1: HA-tagged wild-type diacylglycerol kinase ζ (enzyme)
chain: not shown
notes: diacylglycerol kinase ζ (DGKζ), wild type; also called HA-DGKζ; HA-DGKζ^WT; source: MEFs, infected with adenoviral vector or transiently transfected, in lysate
fold change of binding after PMA against vehicle control [1]: ~2 fold | fold change of binding after PMA against vehicle control [2]: ~2 fold
